Results reported in publication PMC10912698.

Columns and labels:
[1] = target: TssZ^R5A/R9A (non-c-di-GMP-binding mutant) as used in the co-IP (Pseudomonas aeruginosa PAO1); test: co-IP; PAO1 lysate co-expressing TssZ-HA (or TssZ^R5A/R9A) and V5-HinK; Anti-HA Affinity Gel, 2 h at 4 °C, 50 mM Tris-HCl pH 8.0, 150 mM NaCl, 0.05% TWEEN-20; blots with anti-V5 and anti-HA; also in strains overexpressing PA2133 (low c-di-GMP) or WspR (high c-di-GMP) and with 0-6.4 μM exogenous c-di-GMP
[2] = target: TssZ-HA (TssZ fused with a HA tag at its carboxyl-terminal) (Pseudomonas aeruginosa PAO1); test: as above

With “V5-HinK (HinK fused with V5 tag at its amino-terminal) (natural protein)” the fold change of co-immunoprecipitated V5-HinK against wild-type TssZ [1] was 3.3 fold and the fold change of co-immunoprecipitated V5-HinK, low c-di-GMP lysate (PA2133 overexpressing strain) against the PAO1 control strain [2] was 2.2 fold.
